Target: murine p35-HA alanine/serine-scan mutant A13 (mouse) (UniProt P43431)
Assay: co-IP

decrease in IL-35 dimer formation against wild type: 30%
B1: murine Ebi3, triple-FLAG tagged (natural protein)
chain: YTETALVALSQPRVQCHASRYPVAVDCSWTPLQAPNSTRSTSFIATYRLGVATQQQSQPCLQRSPQASRCTIPDVHLFSTVPYMLNVTAVHPGGASSSLLAFVAERIIKPDPPEGVRLRTAGQRLQVLWHPPASWPFPDIFSLKYRLRYRRRGASHFRQVGPIEATTFTLRNSKPHAKYCIQVSAQDLTDYGKPSDWSLPGQVESAPHKP

From article PMC3341524
